B1: Lymphocyte antigen 6 complex locus protein G6f (Homo sapiens), Q5SQ64 (parent)
chain: MAVLFLLLFLCGTPQAADNMQAIYVALGEAVELPCPSPPTLHGDEHLSWFCSPAAGSFTTLVAQVQVGRPAPDPGKPGRESRLRLLGNYSLWLEGSKEEDAGRYWCAVLGQHHNYQNWRVYDVLVLKGSQLSARAADGSPCNVLLCSVVPSRRMDSVTWQEGKGPVRGRVQSFWGSEAALLLVCPGEGLSEPRSRRPRIIRCLMTHNKGVSFSLAASIDASPALCAPSTGWDMPWILMLLLTMGQGVVILALSIVLWRQRVRGAPGRDASIPQFKPEIQVYENIHLARLGPPAHKPR

Variants of: B1
Settings: with grb7_human GRB7, Q14451
grb7_human GRB7, Q14451, sequence (Q14451 whole entry): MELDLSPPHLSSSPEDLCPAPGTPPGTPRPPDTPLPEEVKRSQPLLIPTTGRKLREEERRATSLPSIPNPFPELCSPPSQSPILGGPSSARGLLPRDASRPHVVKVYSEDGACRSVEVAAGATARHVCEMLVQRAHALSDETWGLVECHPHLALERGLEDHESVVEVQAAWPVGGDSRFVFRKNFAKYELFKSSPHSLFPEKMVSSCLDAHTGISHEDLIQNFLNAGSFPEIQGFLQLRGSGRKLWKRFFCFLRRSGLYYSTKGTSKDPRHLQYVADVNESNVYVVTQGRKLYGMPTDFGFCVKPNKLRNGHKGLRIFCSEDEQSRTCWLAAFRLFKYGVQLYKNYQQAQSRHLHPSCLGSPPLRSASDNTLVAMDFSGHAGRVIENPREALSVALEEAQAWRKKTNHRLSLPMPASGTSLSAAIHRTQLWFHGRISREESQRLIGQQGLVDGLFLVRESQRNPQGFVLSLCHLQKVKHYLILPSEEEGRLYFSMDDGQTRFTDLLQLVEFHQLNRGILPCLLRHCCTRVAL

effect of a mutation on the interaction | Variant
disrupting interaction strength | Y281F

Variants of: B1
Settings: with grb2_human GRB2, P62993

effect of a mutation on the interaction | Variant
disrupting interaction strength | Y281F

From IntAct's records for PubMed 12852788
